From patent CN113480658A (SHENZHEN INNOVA NANOBODI CO LTD, dated 2021) come the findings set out here.

In assay [1] the target is T1, 人附睾蛋白(HE4) (human, UniProt Q14508 31-124).
T1 construct: also called HE4抗原; 抗原
T1 sequence (looked up): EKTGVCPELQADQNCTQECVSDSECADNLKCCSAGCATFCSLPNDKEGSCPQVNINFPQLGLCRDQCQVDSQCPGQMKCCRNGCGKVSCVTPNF
Description: additive ELISA on HE4, 1G8 alone. For orientation: An ELISA detects its analyte on a solid surface through an enzyme-linked reagent.

Assay [2] concerns the target T1, 人附睾蛋白(HE4). Description: SPR, Biacore T100, 1:1 binding fit. A general note: SPR reads the build-up and loss of mass on a sensor chip optically.
Assay [3] has as its target T1, 人附睾蛋白(HE4). Description: additive ELISA on HE4, 1D9 alone.

B1: 纳米抗体1G8 (VHH)
VHH: QVQLQESGGGLAQTGGSLRLSCVASGRTLDRYAIGWFRQAPGKEREFVAAISMSGTMTDYTDSVKGRFTISRDNAKNTVYLQMNSLKPDDTAVYCCAAGGRRGWGRALFAYDYWGQGTQVTVSS
The molecule B1 displayed an ELISA reading (2nd抗体) with 人附睾蛋白(HE4) [1] of 0.481.

B2: 纳米抗体1D9 (抗HE4单价纳米抗体) (VHH)
VHH: QVQLQESGGGLVQPGGSLRLSCAASGPRFSSYGMGWFRQAPGKEREFVAAISMSGTMTDYTDSVKGRFTISRDNAKNTVYLQMNSLKPDDTAVYCCAAGGRRGWGRALFAYDYWGQGTQVTVSS
notes: CDR1 26-33, CDR2 51-58, CDR3 97-113); Expressed in E. coli from pMES4 and purified
The Kd is a measure of binding affinity in units of concentration. B2: binding with 人附睾蛋白(HE4) [2] was characterised by a dissociation constant (Kd) of 11.9 pM. Also, the “ELISA reading (1st抗体)” value with 人附睾蛋白(HE4) [3] came out at 0.286.

B3: 抗HE4二价纳米抗体1D9-LHC (VHH)
VHH: QVQLQESGGGLVQPGGSLRLSCAASGPRFSSYGMGWFRQAPGKEREFVAAISMSGTMTDYTDSVKGRFTISRDNAKNTVYLQMNSLKPDDTAVYCCAAGGRRGWGRALFAYDYWGQGTQVTVSS
Take B3: the Kd in the assay with 人附睾蛋白(HE4) [2] was determined as 6.9 pM. In other words, the picomolar range.
